Experimental findings from article PMC8683692 are described below.

By stoichiometry N is commonly meant a count of units in the complex or per binding partner.

The assay has as its target CM1021 (human) (UniProt P02768). As to the kind of experiment: SDS-PAGE without and with reduction.

CM1021, sequence (P14210 whole entry, looked up, the tested form may be a part): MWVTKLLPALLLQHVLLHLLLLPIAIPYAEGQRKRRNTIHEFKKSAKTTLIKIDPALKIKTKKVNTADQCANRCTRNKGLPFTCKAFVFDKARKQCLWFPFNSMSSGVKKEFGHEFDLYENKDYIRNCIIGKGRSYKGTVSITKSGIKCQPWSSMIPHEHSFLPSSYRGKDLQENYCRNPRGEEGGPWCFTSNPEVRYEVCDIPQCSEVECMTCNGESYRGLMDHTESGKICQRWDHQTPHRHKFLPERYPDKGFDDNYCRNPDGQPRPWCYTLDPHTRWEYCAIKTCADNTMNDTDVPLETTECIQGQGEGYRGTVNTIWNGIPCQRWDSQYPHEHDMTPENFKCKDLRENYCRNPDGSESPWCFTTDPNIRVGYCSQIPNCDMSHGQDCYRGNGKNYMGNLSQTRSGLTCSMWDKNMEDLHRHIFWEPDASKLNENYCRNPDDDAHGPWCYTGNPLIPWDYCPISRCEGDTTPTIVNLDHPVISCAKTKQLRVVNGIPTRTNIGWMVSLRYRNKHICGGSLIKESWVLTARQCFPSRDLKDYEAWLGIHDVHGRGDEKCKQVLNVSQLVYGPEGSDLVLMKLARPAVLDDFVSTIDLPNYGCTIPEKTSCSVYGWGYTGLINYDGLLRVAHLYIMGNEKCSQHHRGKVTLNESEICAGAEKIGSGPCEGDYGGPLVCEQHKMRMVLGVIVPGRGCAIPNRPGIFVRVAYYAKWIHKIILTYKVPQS
CM1021, sequence (P02768 whole entry, looked up, the tested form may be a part): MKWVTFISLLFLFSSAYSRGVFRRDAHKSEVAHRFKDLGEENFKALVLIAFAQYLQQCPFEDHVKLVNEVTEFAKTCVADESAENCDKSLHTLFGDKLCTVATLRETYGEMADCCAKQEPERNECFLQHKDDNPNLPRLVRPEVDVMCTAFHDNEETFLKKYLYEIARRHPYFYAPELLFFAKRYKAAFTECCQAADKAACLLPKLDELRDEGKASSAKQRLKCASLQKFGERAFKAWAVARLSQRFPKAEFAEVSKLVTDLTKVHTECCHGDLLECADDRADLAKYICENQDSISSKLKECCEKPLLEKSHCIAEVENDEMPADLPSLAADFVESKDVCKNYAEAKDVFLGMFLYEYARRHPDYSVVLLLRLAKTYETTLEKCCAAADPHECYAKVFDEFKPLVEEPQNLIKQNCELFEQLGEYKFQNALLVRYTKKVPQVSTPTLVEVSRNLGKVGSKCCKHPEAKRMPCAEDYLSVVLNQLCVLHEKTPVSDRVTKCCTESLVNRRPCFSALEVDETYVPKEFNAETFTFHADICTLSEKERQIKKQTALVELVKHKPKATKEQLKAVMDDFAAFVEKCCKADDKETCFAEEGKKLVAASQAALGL

Take “CM1021 (from UniProt P02768 1-18; P14210 124-210) (Fc fusion)”: the stoichiometry N came out at 2.
